How the values were obtained:
[1] = biological target: T1, human FOLR1 extracellular domain linked to His tag (human, UniProt P15328 25-233, limits assumed); test: BLI, global 1:1 fit (250 nM row)
T1 construct: extracellular domain; It may be the same product as m13; also called Hu-FRα; Hu-Ag; not shown: His tag

[2] = biological target: T2, human FOLR2 extracellular domain linked to His tag (human, UniProt P14207 17-230, limits assumed); test: BLI, global 1:1 fit (250 nM row)
T2 construct: extracellular domain; Antigen in solution in BLI; also called Hu-FRb; not shown: His tag

[3] = biological target: T2, human FOLR2 extracellular domain linked …; test: BLI, global 1:1 fit (500 nM row)
[4] = biological target: T1, human FOLR1 extracellular domain linked …; test: BLI, global 1:1 fit (500 nM row)
[5] = biological target: T3, cynomolgus monkey FOLR1 extracellular domain linked to His tag (cynomolgus monkey, UniProt A0A2K5U044 25-233); test: BLI, global 1:1 fit (500 nM row)
T3 construct: extracellular domain; Antigen in solution in BLI; It may be the same product as m14; also called Cyno-Ag; not shown: His tag

[6] = biological target: T1, human FOLR1 extracellular domain linked …; test: BLI, global 1:1 fit (31.3 nM row)
[7] = biological target: T2, human FOLR2 extracellular domain linked …; test: BLI, global 1:1 fit (31.3 nM row)
[8] = biological target: T1, human FOLR1 extracellular domain linked …; test: BLI, global 1:1 fit (62.5 nM row)
[9] = biological target: T2, human FOLR2 extracellular domain linked …; test: BLI, global 1:1 fit (62.5 nM row)
[10] = biological target: T1, human FOLR1 extracellular domain linked …; test: BLI, global 1:1 fit (15.6 nM row)
[11] = biological target: T3, cynomolgus monkey FOLR1 extracellular …; test: BLI, global 1:1 fit (15.6 nM row)
[12] = biological target: T1, human FOLR1 extracellular domain linked …; test: BLI, global 1:1 fit (62.5 nM row); remark: listed apart in the source
[13] = biological target: T3, cynomolgus monkey FOLR1 extracellular …; test: BLI, global 1:1 fit (62.5 nM row)
[14] = biological target: T1, human FOLR1 extracellular domain linked …; test: BLI, global 1:1 fit (7.82 nM row)
[15] = biological target: T3, cynomolgus monkey FOLR1 extracellular …; test: BLI, global 1:1 fit (7.82 nM row)
[16] = biological target: T1, human FOLR1 extracellular domain linked …; test: BLI, Ag 250 nM over Ab on anti-hIgG Fc tip
[17] = biological target: T2, human FOLR2 extracellular domain linked …; test: BLI, Ag 250 nM over Ab on anti-hIgG Fc tip
[18] = biological target: T1, human FOLR1 extracellular domain linked …; test: BLI, Ag 125 nM over Ab on anti-hIgG Fc tip
[19] = biological target: T3, cynomolgus monkey FOLR1 extracellular …; test: BLI, Ag 125 nM over Ab on anti-hIgG Fc tip
[20] = biological target: T4, rat FOLR1 extracellular domain linked to His tag (rat); test: BLI, Ag 31.3 nM; * = below range of quantification
T4 construct: extracellular domain; Antigen in solution in BLI; also called Rat-Ag

[21] = biological target: T5, human FOLR3 extracellular domain linked to His tag (human, UniProt P41439 23-245, limits assumed); test: BLI, global 1:1 fit (31.3 nM row); all responses below quantification
T5 construct: extracellular domain; Antigen in solution in BLI; also called Hu-FRg; not shown: His tag

[22] = biological target: T6, mouse FOLR1 extracellular domain linked to His tag (mouse, UniProt P35846 25-232, limits assumed); test: BLI, global 1:1 fit (15.6 nM row); only the 500 nM response quantifiable
T6 construct: extracellular domain; Antigen in solution in BLI; also called Mouse-Ag; not shown: His tag
T6 sequence (P35846 25-232 limits assumed): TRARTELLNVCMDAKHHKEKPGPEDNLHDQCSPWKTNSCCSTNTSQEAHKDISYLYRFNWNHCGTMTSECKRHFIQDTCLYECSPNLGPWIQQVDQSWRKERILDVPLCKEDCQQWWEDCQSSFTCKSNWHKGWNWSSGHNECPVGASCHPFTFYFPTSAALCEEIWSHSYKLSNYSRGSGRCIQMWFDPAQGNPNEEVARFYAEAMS

T2 sequence (P14207 17-230 limits assumed): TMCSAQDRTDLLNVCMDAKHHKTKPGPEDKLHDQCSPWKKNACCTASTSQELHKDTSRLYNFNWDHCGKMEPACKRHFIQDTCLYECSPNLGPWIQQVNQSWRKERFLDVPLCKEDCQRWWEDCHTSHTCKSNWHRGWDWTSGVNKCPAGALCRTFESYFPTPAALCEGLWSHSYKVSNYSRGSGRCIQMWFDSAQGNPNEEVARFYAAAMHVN
T1 sequence (P15328 25-233 limits assumed): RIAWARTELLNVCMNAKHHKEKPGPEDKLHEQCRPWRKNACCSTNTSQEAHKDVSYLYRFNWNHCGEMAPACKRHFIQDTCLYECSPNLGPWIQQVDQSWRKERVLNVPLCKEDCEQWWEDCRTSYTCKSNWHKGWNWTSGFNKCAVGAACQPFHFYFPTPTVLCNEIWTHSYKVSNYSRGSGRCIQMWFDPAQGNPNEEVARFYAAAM
T5 sequence (P41439 23-245 limits assumed): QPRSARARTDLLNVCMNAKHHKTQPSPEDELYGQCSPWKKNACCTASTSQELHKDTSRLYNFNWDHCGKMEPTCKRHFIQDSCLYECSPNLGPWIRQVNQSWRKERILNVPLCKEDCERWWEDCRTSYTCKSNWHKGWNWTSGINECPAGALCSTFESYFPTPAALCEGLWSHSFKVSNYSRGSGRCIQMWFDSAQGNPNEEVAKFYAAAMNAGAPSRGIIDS
T3 sequence (A0A2K5U044 entry or part of it): as the sequence (P15328 25-233 limits assumed) above, with I2T, W4R, R37K, A146P, H171Y counted along it

B1: F131 (antibody, V domains shown)
VH: EVQLLESGGGVVQPGRSLRLSCAASGFTFSSYGMHWVRQAPGKGLEWVAVISYDGSNKYYADSVKGRFTISRANSKNTLYLQMNSLRAEDTAVYYCARPRAYYGAYGSSFDYWGQGTQVTVSS
VL: EIVMTQSPSSVSASVGDRVAITCRASQGISSWLAWYQQKPGKAPKLLIYAASSLQSGVPSRFSGSGSGTDFTLTISSLQPEDFATYYCQQSYSTPLTFGGGTKVDIK
notes: also called clone F131; F131 mAb
Which Kd [1] does the source give for B1 here?
The Kd was 5.3 nM.

And the koff [1]?
Its koff is 0.0012 s⁻¹.

What about the kon [1] of the same binder?
Its kon is 226000 M⁻¹ s⁻¹.

What about the Kd [2] of the same binder?
Its Kd is 142 nM.

And the koff [2]?
The koff was 0.0784 s⁻¹.

And the kon [2]?
The kon was 552000 M⁻¹ s⁻¹.

And the Kd [3]?
Its Kd is 142 nM.

And the koff [3]?
The koff was 0.0784 s⁻¹.

And the kon [3]?
Its kon is 552000 M⁻¹ s⁻¹.

And the koff [4]?
The koff was 0.000338 s⁻¹.

What about the kon [4] of the same binder?
The kon was 221000 M⁻¹ s⁻¹.

What about the Kd [5] of the same binder?
The Kd was 8.15 nM.

What about the koff [5] of the same binder?
The koff was 0.00157 s⁻¹.

What about the kon [5] of the same binder?
Its kon is 193000 M⁻¹ s⁻¹.

And the Kd [6]?
Its Kd is 5.3 nM.

What about the koff [6] of the same binder?
Its koff is 0.0012 s⁻¹.

And the kon [6]?
The kon was 226000 M⁻¹ s⁻¹.

And the Kd [7]?
Its Kd is 142 nM.

And the koff [7]?
The koff was 0.0784 s⁻¹.

And the kon [7]?
The kon was 552000 M⁻¹ s⁻¹.

And the Kd [8]?
Its Kd is 5.3 nM.

And the koff [8]?
The koff was 0.0012 s⁻¹.

And the kon [8]?
Its kon is 226000 M⁻¹ s⁻¹.

What about the Kd [9] of the same binder?
The Kd was 142 nM.

What about the koff [9] of the same binder?
Its koff is 0.0784 s⁻¹.

What about the kon [9] of the same binder?
The kon was 552000 M⁻¹ s⁻¹.

And the Kd [10]?
The Kd was 1.53 nM.

What about the koff [10] of the same binder?
The koff was 0.000338 s⁻¹.

And the kon [10]?
The kon was 221000 M⁻¹ s⁻¹.

What about the Kd [11] of the same binder?
Its Kd is 8.15 nM.

What about the koff [11] of the same binder?
The koff was 0.00157 s⁻¹.

What about the kon [11] of the same binder?
Its kon is 193000 M⁻¹ s⁻¹.

What about the Kd [12] of the same binder?
Its Kd is 1.53 nM.

And the koff [12]?
Its koff is 0.000338 s⁻¹.

What about the kon [12] of the same binder?
The kon was 221000 M⁻¹ s⁻¹.

And the Kd [13]?
Its Kd is 8.15 nM.

What about the koff [13] of the same binder?
The koff was 0.00157 s⁻¹.

And the kon [13]?
Its kon is 193000 M⁻¹ s⁻¹.

And the Kd [14]?
Its Kd is 1.53 nM.

And the koff [14]?
The koff was 0.000338 s⁻¹.

And the kon [14]?
The kon was 221000 M⁻¹ s⁻¹.

What about the Kd [15] of the same binder?
Its Kd is 8.15 nM.

And the koff [15]?
The koff was 0.00157 s⁻¹.

What about the kon [15] of the same binder?
Its kon is 193000 M⁻¹ s⁻¹.

And the Response [16]?
The Response was 0.178.

And the Response [17]?
Its Response is 0.0207.

And the Response [18]?
The Response was 0.146.

What about the Response [19] of the same binder?
Its Response is 0.177.

And the Response [20]?
Its Response is -0.00532.

What about the koff [21] of the same binder?
The koff was 0.217 s⁻¹.

And the kon [21]?
The kon was 1660 M⁻¹ s⁻¹.

And the Kd [22]?
Its Kd is 2960 nM.

And the koff [22]?
The koff was 0.301 s⁻¹.

And the kon [22]?
The kon was 102000 M⁻¹ s⁻¹.

B2: F131-LD038 (antibody, V domains shown)
VH: EVQLLESGGGVVQPGRSLRLSCAASGFTFSSYGMHWVRQAPGKGLEWVAVISYDGSNKYYADSVKGRFTISRANSKNTLYLQMNSLRAEDTAVYYCARPRAYYGAYGSSFDYWGQGTQVTVSS
VL: EIVMTQSPSSVSASVGDRVAITCRASQGISSWLAWYQQKPGKAPKLLIYAASSLQSGVPSRFSGSGSGTDFTLTISSLQPEDFATYYCQQSYSTPLTFGGGTKVDIK
modifications: drug-linker LD038 (PB038, maleimide-PEG unit-Val-Cit-PAB-exatecan) on cysteines freed by TCEP reduction; positions not given
notes: Antibody-drug conjugate of F131 (IgG1) with LD038; also called anti-huFOLR-1 conjugate F131-LD038; F131-038
For B2, which Kd [1] is on record?
The Kd was 4.79 nM.

What about the koff [1] of the same binder?
Its koff is 0.00121 s⁻¹.

What about the kon [1] of the same binder?
Its kon is 252000 M⁻¹ s⁻¹.

What about the Kd [2] of the same binder?
The Kd was 84.4 nM.

What about the koff [2] of the same binder?
Its koff is 0.0813 s⁻¹.

And the kon [2]?
The kon was 963000 M⁻¹ s⁻¹.

What about the Kd [3] of the same binder?
The Kd was 84.4 nM.

What about the koff [3] of the same binder?
Its koff is 0.0813 s⁻¹.

What about the kon [3] of the same binder?
Its kon is 963000 M⁻¹ s⁻¹.

And the Kd [4]?
The Kd was 4.8 nM.

What about the koff [4] of the same binder?
The koff was 0.00107 s⁻¹.

And the kon [4]?
Its kon is 224000 M⁻¹ s⁻¹.

And the Kd [5]?
Its Kd is 8.82 nM.

What about the koff [5] of the same binder?
The koff was 0.0016 s⁻¹.

And the kon [5]?
The kon was 181000 M⁻¹ s⁻¹.

What about the Kd [6] of the same binder?
The Kd was 4.79 nM.

What about the koff [6] of the same binder?
Its koff is 0.00121 s⁻¹.

What about the kon [6] of the same binder?
Its kon is 252000 M⁻¹ s⁻¹.

What about the Kd [7] of the same binder?
The Kd was 84.4 nM.

What about the koff [7] of the same binder?
Its koff is 0.0813 s⁻¹.

What about the kon [7] of the same binder?
The kon was 963000 M⁻¹ s⁻¹.

And the Kd [8]?
The Kd was 4.79 nM.

And the koff [8]?
Its koff is 0.00121 s⁻¹.

And the kon [8]?
Its kon is 252000 M⁻¹ s⁻¹.

And the Kd [9]?
Its Kd is 84.4 nM.

What about the koff [9] of the same binder?
Its koff is 0.0813 s⁻¹.

And the kon [9]?
The kon was 963000 M⁻¹ s⁻¹.

And the Kd [10]?
The Kd was 4.8 nM.

What about the koff [10] of the same binder?
Its koff is 0.00107 s⁻¹.

What about the kon [10] of the same binder?
Its kon is 224000 M⁻¹ s⁻¹.

And the Kd [11]?
Its Kd is 8.82 nM.

And the koff [11]?
Its koff is 0.0016 s⁻¹.

And the kon [11]?
The kon was 181000 M⁻¹ s⁻¹.

And the Kd [12]?
The Kd was 4.8 nM.

And the koff [12]?
Its koff is 0.00107 s⁻¹.

And the kon [12]?
Its kon is 224000 M⁻¹ s⁻¹.

And the Kd [13]?
Its Kd is 8.82 nM.

What about the koff [13] of the same binder?
Its koff is 0.0016 s⁻¹.

What about the kon [13] of the same binder?
Its kon is 181000 M⁻¹ s⁻¹.

And the Kd [14]?
Its Kd is 4.8 nM.

What about the koff [14] of the same binder?
The koff was 0.00107 s⁻¹.

And the kon [14]?
Its kon is 224000 M⁻¹ s⁻¹.

What about the Kd [15] of the same binder?
The Kd was 8.82 nM.

And the koff [15]?
Its koff is 0.0016 s⁻¹.

What about the kon [15] of the same binder?
Its kon is 181000 M⁻¹ s⁻¹.

What about the Response [16] of the same binder?
Its Response is 0.201.

What about the Response [17] of the same binder?
The Response was 0.0243.

What about the Response [18] of the same binder?
The Response was 0.158.

And the Response [19]?
The Response was 0.152.

What about the Response [20] of the same binder?
Its Response is -0.00454.

What about the koff [21] of the same binder?
The koff was 0.233 s⁻¹.

And the Kd [22]?
Its Kd is 2870 nM.

And the koff [22]?
The koff was 0.266 s⁻¹.

And the kon [22]?
The kon was 92600 M⁻¹ s⁻¹.

Reference: patent publication US20240245796A1 (PROFOUNDBIO US, published 2024)
